The values that follow come from paper doi:10.1101/2025.05.16.654432.

Test [1] has as its target Trigger Factor (UniProt P0A850). Put plainly: high-speed atomic force microscopy.
The target in test [2] is ribosome-nascent chain complex (RNC) stalled on mTFP1-KCNQ helices A, TW, B-SecM arrest peptide (UniProt P0ADZ0). In words: high-speed atomic force microscopy.

Regarding “Trigger Factor (from UniProt P0A850 1-432) (natural protein)”, the stoichiometry N (usually a count of units in the complex or per binding partner) in test [1] came to 2. In test [2], the duration of binding is above 30 s; the duration of binding (second interaction, near bL17) is below 15 s; the dwell time constant τ (first TF binding event) is 8 s; the dwell time constant τ (first TF molecule) stood at 8.3 s. Further, in test [2], the dwell time constant τ (second TF molecule, near bL17) is 3.9 s and the stoichiometry N was found to be 2.
